In series [1] the test system is HeLa Kyoto. Nature of the series: thermal stability score vs G1/S (z-score of summed log2 fold changes over temperatures); higher = more thermally stable than in G1/S.
In series [2] the test system is HeLa Kyoto. Nature of the series: melting temperature (median over replicates), in situ; higher = more thermally stable.
Series [3] relates to HeLa Kyoto. Put plainly: solubility in G1/S (NP-40 vs SDS abundance) (log2 ratio); higher = more soluble. Conditions: cell cycle stage: G1/S.
Series [4] has as its system HeLa Kyoto. Put plainly: solubility change mitosis vs G1/S (difference of NP-40 vs SDS log2 ratios) (log2 ratio difference); higher = more soluble in mitosis.
[5] abbreviates: cell cycle stage: early G1 (4.5 h after nocodazole release).
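Throughout, for melting temperature (median over replicates), in situ: HeLa Kyoto cells synchronized by double thymidine or nocodazole block, proteins quantified by TMT10plex mass spectrometry, three independent biological replicates.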
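Throughout, for solubility change mitosis vs G1/S (difference of NP-40 vs SDS log2 ratios): synchronized HeLa Kyoto cells (double thymidine block for G1/S, nocodazole release for mitosis), protein amounts in NP-40 versus SDS lysates quantified by mass spectrometry, three biological replicates.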
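Throughout, for solubility in G1/S (NP-40 vs SDS abundance): HeLa Kyoto cells arrested at G1/S by double thymidine block, proteins quantified by TMT10plex mass spectrometry in mild NP-40 versus SDS extracts, three biological replicates.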
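Throughout, for thermal stability score vs G1/S (z-score of summed log2 fold changes over temperatures): synchronized HeLa Kyoto cells, proteins quantified by TMT10plex mass spectrometry, three biological replicates, mitosis taken 0.5 h after nocodazole release, G1/S directly after double thymidine block.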

In the case of “MAAKGAHGSYLKVESELERCRAEGHWDRMPELVRQLQTLSMPGGGGNRRGSPSAAFTFPDTDDFGKLLLAEALLEQCLKENHAKIKDSMPLLEKNEPKMSEAKNYLSSILNHGRLSPQYMCEAMLILGKLHYVEGSYRDAISMYARAGIDDMSMENKPLYQMRLLSEAFVIKGLSLERLPNSIASRFRLTEREEEVITCFERASWIAQVFLQELEKTTNNSTSRHLKGCHPLDYELTYFLEAALQSAYVKNLKKGNIVKGMRELREVLRTVETKATQNFKVMAAKHLAGVLLHSLSEECYWSPLSHPLPEFMGKEESSFATQALRKPHLYEGDNLYCPKDNIEEALLLLLISESMATRDVVLSRVPEQEEDRTVSLQNAAAIYDLLSITLGRRGQYVMLSECLERAMKFAFGEFHLWYQVALSMVACGKSAYAVSLLRECVKLRPSDPTVPLMAAKVCIGSLRWLEEAEHFAMMVISLGEEAGEFLPKGYLALGLTYSLQATDATLKSKQDELHRKALQTLERAQQLAPSDPQVILYVSLQLALVRQISSAMEQLQEALKVRKDDAHALHLLALLFSAQKHHQHALDVVNMAITEHPENFNLMFTKVKLEQVLKGPEEALVTCRQVLRLWQTLYSFSQLGGLEKDGSFGEGLTMKKQSGMHLTLPDAHDADSGSRRASSIAASRLEEAMSELTMPSSVLKQGPMQLWTTLEQIWLQAAELFMEQQHLKEAGFCIQEAAGLFPTSHSVLYMRGRLAEVKGNLEEAKQLYKEALTVNPDGVRIMHSLGLMLSRLGHKSLAQKVLRDAVERQSTCHEAWQGLGEVLQAQGQNEAAVDCFLTALELEASSPVLPFSIIPREL [TTC7A]”, the values for the thermal stability score with HeLa Kyoto [1] (setting [5]) and with HeLa Kyoto [1] (cell cycle stage: mitosis) were 0.0827 and -0.515, respectively. Moreover, the melting temperature in the series with HeLa Kyoto [2] (cell cycle stage: G1/S) was 51.2 °C. The “solubility in G1/S (log2)” value in the series with HeLa Kyoto [3] was determined as 0.161. Also, the “solubility change mitosis (log2)” value in the series with HeLa Kyoto [4] was -0.168.

Regarding “MAAKVFESIGKFGLALAVAGGVVNSALYNVDAGHRAVIFDRFRGVQDIVVGEGTHFLIPWVQKPIIFDCRSRPRNVPVITGSKDLQNVNITLRILFRPVASQLPRIFTSIGEDYDERVLPSITTEILKSVVARFDAGELITQRELVSRQVSDDLTERAATFGLILDDVSLTHLTFGKEFTEAVEAKQVAQQEAERARFVVEKAEQQKKAAIISAEGDSKAAELIANSLATAGDGLIELRKLEAAEDIAYQLSRSRNITYLPAGQSVLLQLPQ [PHB]”, the thermal stability score with HeLa Kyoto [1] (setting [5]) is -1.45; in the series on HeLa Kyoto [1] (cell cycle stage: mitosis), -2.71. In addition, the melting temperature in the series with HeLa Kyoto [2] (cell cycle stage: G1/S) turned out to be 59.5 °C; with HeLa Kyoto [2] (cell cycle stage: mitosis), 58.1 °C. Further, in the series with HeLa Kyoto [3], the “solubility in G1/S (log2)” value was -0.137. In the series on HeLa Kyoto [4], the “solubility change mitosis (log2)” value is -0.0774.

Regarding “MAALGPSSQNVTEYVVRVPKNTTKKYNIMAFNAADKVNFATWNQARLERDLSNKKIYQEEEMPESGAGSEFNRKLREEARRKKYGIVLKEFRPEDQPWLLRVNGKSGRKFKGIKKGGVTENTSYYIFTQCPDGAFEAFPVHNWYNFTPLARHRTLTAEEAEEEWERRNKVLNHFSIMQQRRLKDQDQDEDEEEKEKRGRRKASELRIHDLEDDLEMSSDASDASGEEGGRVPKAKKKAPLAKGGRKKKKKKGSDDEAFEDSDDGDFEGQEVDYMSDGSSSSQEEPESKAKAPQQEEGPKGVDEQSDSSEESEEEKPPEEDKEEEEEKKAPTPQEKKRRKDSSEESDSSEESDIDSEASSALFMAKKKTPPKRERKPSGGSSRGNSRPGTPSAEGGSTSSTLRAAASKLEQGKRVSEMPAAKRLRLDTGPQSLSGKSTPQPPSGKTTPNSGDVQVTEDAVRRYLTRKPMTTKDLLKKFQTKKTGLSSEQTVNVLAQILKRLNPERKMINDKMHFSLKE [GTF2F1]”, the thermal stability score is -0.52 in the series with HeLa Kyoto [1] (setting [5]) and -1.74 in the series with HeLa Kyoto [1] (cell cycle stage: mitosis). Moreover, the melting temperature in the series with HeLa Kyoto [2] (cell cycle stage: G1/S) came out at 52.7 °C; with HeLa Kyoto [2] (cell cycle stage: mitosis), 53.3 °C. Also, the “solubility in G1/S (log2)” value with HeLa Kyoto [3] is 0.237. The “solubility change mitosis (log2)” value in the series with HeLa Kyoto [4] is 0.126.

With “MAALTLRGVRELLKRVDLATVPRRHRYKKKWAATEPKFPAVRLALQNFDMTYSVQFGDLWPSIRVSLLSEQKYGALVNNFAAWDHVSAKLEQLSAKDFVNEAISHWELQSEGGQSAAPSPASWACSPNLRCFTFDRGDISRFPPARPGSLGVMEYYLMDAASLLPVLALGLQPGDIVLDLCAAPGGKTLALLQTGCCRNLAANDLSPSRIARLQKILHSYVPEEIRDGNQVRVTSWDGRKWGELEGDTYDRVLVDVPCTTDRHSLHEEENNIFKRSRKKERQILPVLQVQLLAAGLLATKPGGHVVYSTCSLSHLQNEYVVQGAIELLANQYSIQVQVEDLTHFRRVFMDTFCFFSSCQVGELVIPNLMANFGPMYFCKMRRLT [NSUN4]”, the thermal stability score was found to be 0.266 with HeLa Kyoto [1] (setting [5]) and 0.044 with HeLa Kyoto [1] (cell cycle stage: mitosis). For the same sequence, the melting temperature in the series on HeLa Kyoto [2] (cell cycle stage: G1/S) was found to be 51.7 °C; in the series on HeLa Kyoto [2] (cell cycle stage: mitosis), 51.9 °C. In the series with HeLa Kyoto [3], the “solubility in G1/S (log2)” value was -0.195. Moreover, the “solubility change mitosis (log2)” value in the series on HeLa Kyoto [4] stood at 0.115.

In the case of “MAALVVSGAAEQGGRDGPGRGRAPRGRVANQIPPEILKNPQLQAAIRVLPSNYNFEIPKTIWRIQQAQAKKVALQMPEGLLLFACTIVDILERFTEAEVMVMGDVTYGACCVDDFTARALGADFLVHYGHSCLIPMDTSAQDFRVLYVFVDIRIDTTHLLDSLRLTFPPATALALVSTIQFVSTLQAAAQELKAEYRVSVPQCKPLSPGEILGCTSPRLSKEVEAVVYLGDGRFHLESVMIANPNVPAYRYDPYSKVLSREHYDHQRMQAARQEAIATARSAKSWGLILGTLGRQGSPKILEHLESRLRALGLSFVRLLLSEIFPSKLSLLPEVDVWVQVACPRLSIDWGTAFPKPLLTPYEAAVALRDISWQQPYPMDFYAGSSLGPWTVNHGQDRRPHAPGRPARGKVQEGSARPPSAVACEDCSCRDEKVAPLAP [DPH1]”, the thermal stability score in the series on HeLa Kyoto [1] (setting [5]) is -0.776; in the series with HeLa Kyoto [1] (cell cycle stage: mitosis) it was -1.19. In addition, the melting temperature in the series with HeLa Kyoto [2] (cell cycle stage: G1/S) and with HeLa Kyoto [2] (cell cycle stage: mitosis) was 53 °C each time. Further, the “solubility in G1/S (log2)” value in the series on HeLa Kyoto [3] is 0.145. Further, the “solubility change mitosis (log2)” value in the series on HeLa Kyoto [4] was -0.202.

Regarding “MAAMAPGGSGSGGGVNPFLSDSDEDDDEVAATEERRAVLRLGAGSGLDPGSAGSLSPQDPVALGSSARPGLPGEASAAAVALGGTGETPARLSIDAIAAQLLRDQYLLTALELHTELLESGRELPRLRDYFSNPGNFERQSGTPPGMGAPGVPGAAGVGGAGGREPSTASGGGQLNRAGSISTLDSLDFARYSDDGNRETDEKVAVLEFELRKAKETIQALRANLTKAAEHEVPLQERKNYKSSPEIQEPIKPLEKRALNFLVNEFLLKNNYKLTSITFSDENDDQDFELWDDVGLNIPKPPDLLQLYRDFGNHQVTGKDLVDVASGVEEDELEALTPIISNLPPTLETPQPAENSMLVQKLEDKISLLNSEKWSLMEQIRRLKSEMDFLKNEHFAIPAVCDSVQPPLDQLPHKDSEDSGQHPDVNSSDKGKNTDIHLSISDEADSTIPKENSPNSFPRREREGMPPSSLSSKKTVHFDKPNRKLSPAFHQALLSFCRMSADSRLGYEVSRIADSEKSVMLMLGRCLPHIVPNVLLAKREELIPLILCTACLHPEPKERDQLLHILFNLIKRPDDEQRQMILTGCVAFARHVGPTRVEAELLPQCWEQINHKYPERRLLVAESCGALAPYLPKEIRSSLVLSMLQQMLMEDKADLVREAVIKSLGIIMGYIDDPDKYHQGFELLLSALGDPSERVVSATHQVFLPAYAAWTTELGNLQSHLILTLLNKIEKLLREGEHGLDEHKLHMYLSALQSLIPSLFALVLQNAPFSSKAKLHGEVPQIEVTRFPRPMSPLQDVSTIIGSREQLAVLLQLYDYQLEQEGTTGWESLLWVVNQLLPQLIEIVGKINVTSTACVHEFSRFFWRLCRTFGKIFTNTKVKPQFQEILRLSEENIDSSAGNGVLTKATVPIYATGVLTCYIQEEDRKLLVGFLEDVMTLLSLSHAPLDSLKASFVELGANPAYHELLLTVLWYGVVHTSALVRCTAARMFELTLRGMSEALVDKRVAPALVTLSSDPEFSVRIATIPAFGTIMETVIQRELLERVKMQLASFLEDPQYQDQHSLHTEIIKTFGRVGPNAEPRFRDEFVIPHLHKLALVNNLQIVDSKRLDIATHLFEAYSALSCCFISEDLMVNHFLPGLRCLRTDMEHLSPEHEVILSSMIKECEQKVENKTVQEPQGSMSIAASLVSEDTKTKFLNKMGQLTTSGAMLANVFQRKK [KIAA1468]”, the thermal stability score was -0.253 in the series on HeLa Kyoto [1] (setting [5]) and -0.932 in the series with HeLa Kyoto [1] (cell cycle stage: mitosis). In addition, the melting temperature in the series on HeLa Kyoto [2] (cell cycle stage: G1/S) stood at 50.8 °C; in the series with HeLa Kyoto [2] (cell cycle stage: mitosis), 51.1 °C. Moreover, the “solubility in G1/S (log2)” value with HeLa Kyoto [3] is -0.0233. Further, the “solubility change mitosis (log2)” value with HeLa Kyoto [4] is -0.171.

Turning to “MAAPALRLCHIAFHVPAGQPLARNLQRLFGFQPLASREVDGWRQLALRSGDAVFLVNEGAGSGEPLYGLDPRHAVPSATNLCFDVADAGAATRELAALGCSVPVPPVRVRDAQGAATYAVVSSPAGILSLTLLERAGYRGPFLPGFRPVSSAPGPGWVSRVDHLTLACTPGSSPTLLRWFHDCLGFCHLPLSPGEDPELGLEMTAGFGLGGLRLTALQAQPGSIVPTLVLAESLPGATTRQDQVEQFLARHKGPGLQHVGLYTPNIVEATEGVATAGGQFLAPPGAYYQQPGKERQIRAAGHEPHLLARQGILLDGDKGKFLLQVFTKSLFTEDTFFLELIQRQGATGFGQGNIRALWQSVQEQSARSQEA [HPDL]”, the figures for the thermal stability score in the series on HeLa Kyoto [1] (setting [5]) and in the series on HeLa Kyoto [1] (cell cycle stage: mitosis) were 1.41 and 0.476, respectively. Moreover, the melting temperature was 53.9 °C in the series on HeLa Kyoto [2] (cell cycle stage: G1/S) and 52.8 °C with HeLa Kyoto [2] (cell cycle stage: mitosis). In addition, in the series with HeLa Kyoto [3], the “solubility in G1/S (log2)” value was determined as 0.23. Moreover, the “solubility change mitosis (log2)” value in the series on HeLa Kyoto [4] was -0.0348.

The values above are taken from the supplement of paper PMC5998384.
